Source: US20150203577A1 (Chugai, published 2015)
Positions count from the first letter of the chain named.

B1: MB781 (antibody, mouse IgG1, kappa)
heavy: QVQLQESGPGLVKPSETLSLTCAVSGHSISHDHAWSWVRQPPGEGLEWIGFISYSGITNYNPSLQGRVTISRDNSKNTLYLQMNSLRAEDTAVYYCARSLARTTAMDYWGEGTLVTVSSAKTTPPSVYPLAPGSAAQTNSMVTLGCLVKGYFPEPVTVTWNSGSLSSGVHTFPAVLQSDLYTLSSSVTVPSSTWPSETVTCNVAHPASSTKVDKKIVPRDCGCKPCICEPNEVELVFIFPPKPKDVLTITLTPKVTCVVVDISKDDPEVQFSWFVDDVEVHTAQTQPREEQFNSTFRSVSELPIMHQDWLNGKEFKCRVNSAAFPKPIEKTISKTKGRPKAPQVYTIPPPKEQMAKDKVSLTCMITDFFPEDITVEWQWNGQPAENYKNTQPIMDTDGSYFVYSKLNVQKSNWEAGNTFTCSVLHEGLHNHHTEKSLSHSPGK
light: not shown
notes: CH name; VH H237 + CH, L chain MRAL-k0; copies: 2 + 2
B2: MB782 (antibody, mouse IgG1, kappa)
heavy: B1 heavy with Q291L, N320D, K326A
light: not shown
notes: as for B1
B3: MB783 (antibody, mouse IgG1, kappa)
heavy: B1 heavy with Q291L, A322D, K326A
light: not shown
notes: as for B1
B4: MB784 (antibody, mouse IgG1, kappa)
heavy: B1 heavy with Q291L, K326A, K330R
light: not shown
notes: as for B1
B5: MB785 (antibody, mouse IgG1, kappa)
heavy: B1 heavy with N320D, A322D, K326A
light: not shown
notes: as for B1
B6: MB786 (antibody, mouse IgG1, kappa)
heavy: B1 heavy with A322D, K326A, K330R
light: not shown
notes: as for B1
B7: MB787 (antibody, mouse IgG1, kappa)
heavy: B1 heavy with Q291L, N320D, A322D, K326A
light: not shown
notes: as for B1
B8: MB788 (antibody, mouse IgG1, kappa)
heavy: B1 heavy with Q291L, N320D, K326A, K330R
light: not shown
notes: as for B1
B9: MB789 (antibody, mouse IgG1, kappa)
heavy: B1 heavy with Q291L, A322D, K326A, K330R
light: not shown
notes: as for B1
B10: MB790 (antibody, mouse IgG1, kappa)
heavy: B1 heavy with N320D, A322D, K326A, K330R
light: not shown
notes: as for B1
B11: MB791 (antibody, mouse IgG1, kappa)
heavy: B1 heavy with Q291L, N320D, A322D, K326A, K330R
light: not shown
notes: as for B1
B12: MB807 (antibody, mouse IgG1, kappa)
heavy: B1 heavy with Q291L, N320M, K326A
light: not shown
notes: as for B1
B13: MB808 (antibody, mouse IgG1, kappa)
heavy: B1 heavy with Q291L, A323G, K326A
light: not shown
notes: as for B1
B14: MB809 (antibody, mouse IgG1, kappa)
heavy: B1 heavy with Q291L, K326A, P327F
light: not shown
notes: as for B1
B15: MB810 (antibody, mouse IgG1, kappa)
heavy: B1 heavy with Q291L, K326A, P327Y
light: not shown
notes: as for B1
B16: MB811 (antibody, mouse IgG1, kappa)
heavy: B1 heavy with Q291L, K326A, E329Y
light: not shown
notes: as for B1
B17: MB812 (antibody, mouse IgG1, kappa)
heavy: B1 heavy with N320D, A323G, K326A
light: not shown
notes: as for B1
B18: MB813 (antibody, mouse IgG1, kappa)
heavy: B1 heavy with N320D, K326A, P327F
light: not shown
notes: as for B1
B19: MB814 (antibody, mouse IgG1, kappa)
heavy: B1 heavy with N320D, K326A, P327Y
light: not shown
notes: as for B1
B20: MB815 (antibody, mouse IgG1, kappa)
heavy: B1 heavy with N320D, K326A, E329Y
light: not shown
notes: as for B1
B21: MB816 (antibody, mouse IgG1, kappa)
heavy: B1 heavy with N320M, A322D, K326A
light: not shown
notes: as for B1
B22: MB817 (antibody, mouse IgG1, kappa)
heavy: B1 heavy with N320M, A323G, K326A
light: not shown
notes: as for B1
B23: MB818 (antibody, mouse IgG1, kappa)
heavy: B1 heavy with N320M, K326A, P327F
light: not shown
notes: as for B1
B24: MB819 (antibody, mouse IgG1, kappa)
heavy: B1 heavy with N320M, K326A, P327Y
light: not shown
notes: as for B1
B25: MB820 (antibody, mouse IgG1, kappa)
heavy: B1 heavy with N320M, K326A, E329Y
light: not shown
notes: as for B1
B26: MB821 (antibody, mouse IgG1, kappa)
heavy: B1 heavy with N320M, K326A, K330R
light: not shown
notes: as for B1
B27: MB822 (antibody, mouse IgG1, kappa)
heavy: B1 heavy with A322D, A323G, K326A
light: not shown
notes: as for B1
B28: MB823 (antibody, mouse IgG1, kappa)
heavy: B1 heavy with A322D, K326A, P327F
light: not shown
notes: as for B1

What follows are binders tested against T1, mouse FcγRII (mouse, UniProt P08101 30-210) (assay: SPR (Biacore T200); KD of H237-MB630/MRAL-k0 / KD of variant).
T1 construct: Extracellular domain with C-terminal His tag; also called mFcγRII; mFcgRII
T1 sequence: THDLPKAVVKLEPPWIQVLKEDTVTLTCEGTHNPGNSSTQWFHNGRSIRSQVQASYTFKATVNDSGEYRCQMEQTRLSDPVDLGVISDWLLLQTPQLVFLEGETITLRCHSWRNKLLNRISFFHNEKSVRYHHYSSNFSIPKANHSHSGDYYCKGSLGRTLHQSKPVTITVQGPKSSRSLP

Binder | Relative mFcγRII-binding activity (MB630 = 1) [fold]
B1 | 0.48
B2 | 1.96
B3 | 2.82
B4 | 1.36
B5 | 2.29
B6 | 2.5
B7 | 3.55
B8 | 2.06
B9 | 2.84
B10 | 3.08
B11 | 3.7
B12 | 1.67
B13 | 2.22
B14 | 1.44
B15 | 1.58
B16 | 1.69
B17 | 2.54
B18 | 1.24
B19 | 1.37
B20 | 1.34
B21 | 2.31
B22 | 2.17
B23 | 1.19
B24 | 1.38
B25 | 1.49
B26 | 1.86
B27 | 3.33
B28 | 1.9

Biological target: T2, mouse FcγRIII (mouse, UniProt P08508 31-215)
T2 construct: Extracellular domain with C-terminal His tag; also called mFcγRIII; mFcgRIII
T2 chain: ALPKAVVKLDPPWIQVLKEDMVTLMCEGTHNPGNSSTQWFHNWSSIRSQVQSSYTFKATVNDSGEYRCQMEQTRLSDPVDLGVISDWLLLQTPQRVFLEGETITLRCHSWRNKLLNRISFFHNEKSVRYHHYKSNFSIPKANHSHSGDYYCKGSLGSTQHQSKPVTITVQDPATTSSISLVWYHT
Assay: as above

Binder | Relative mFcγRIII-binding activity (MB630 = 1) [fold]
B1 | 0.77
B2 | 2.89
B3 | 4.34
B4 | 2.24
B5 | 2.85
B6 | 3.33
B7 | 5.57
B8 | 3.46
B9 | 4.79
B10 | 4.09
B11 | 6.43
B12 | 2.11
B13 | 3.4
B14 | 1.92
B15 | 2.24
B16 | 1.87
B17 | 2.93
B18 | 1.29
B19 | 1.48
B20 | 1.3
B21 | 2.84
B22 | 2.27
B23 | 1.25
B24 | 1.4
B25 | 1.43
B26 | 1.96
B27 | 4.02
B28 | 2.13

The binders below were run against T1, mouse FcγRII (assay: SPR (Biacore T200); KD of H237-mIgG1/MRAL-k0 / KD of variant).

Binder | relative mFcγRII-binding activity (mIgG1 = 1) [fold]
B1 | 5.2
B2 | 21.3
B3 | 30.6
B4 | 14.7
B5 | 24.9
B6 | 27.2
B7 | 38.5
B8 | 22.4
B9 | 30.9
B10 | 33.5
B11 | 40.1
B12 | 21.9
B13 | 29.2
B14 | 19
B15 | 20.8
B16 | 22.2
B17 | 33.4
B18 | 16.3
B19 | 18
B20 | 17.6
B21 | 30.4
B22 | 28.5
B23 | 15.6
B24 | 18.1
B25 | 19.5
B26 | 24.4
B27 | 43.8
B28 | 25

Biological target: T2, mouse FcγRIII
Assay: as above

Binder | relative mFcγRIII-binding activity (mIgG1 = 1) [fold]
B1 | 0.13
B2 | 0.5
B3 | 0.75
B4 | 0.38
B5 | 0.49
B6 | 0.57
B7 | 0.96
B8 | 0.59
B9 | 0.82
B10 | 0.7
B11 | 1.1
B12 | 0.49
B13 | 0.78
B14 | 0.44
B15 | 0.52
B16 | 0.43
B17 | 0.68
B18 | 0.3
B19 | 0.34
B20 | 0.3
B21 | 0.65
B22 | 0.52
B23 | 0.29
B24 | 0.32
B25 | 0.33
B26 | 0.45
B27 | 0.93
B28 | 0.49
